# Results: US20120172298A1, “GLP-1 AND FGF21 COMBINATIONS FOR TREATMENT OF DIABETES TYPE 2” (Novo Nordisk A/S, priority 2009, published 2012)
# Where “and” joins values, the source holds several entries; their conditions need not be identical. Equal entries are not always repeated.
# B1: Met-FGF21_human (protein, listed as Homo sapiens)
# chain: HPIPDSSPLLQFGGQVRQRYLYTDDAQQTEAHLEIREDGTVGGAADQSPESLLQLKALKPGVIQILGVKTSRFLCQRPDGALYGSLHFDPEACSFRELLLEDGYNVYQSEAHGLPLHLPGNKSPHRDPAPRGPARFLPLPGLPPALPEPPGILAPQPPDVGSSDPLSMVGPSQGRSPSYAS
# modifications: N-terminal Met; mat_peptide (1)..(181); DISULFID (75)..(93)
# Tests used:
# [1] = test system: pancreatic islets from diabetic db/db mice; experiment: Restoration of glucose stimulated insulin release ex vivo (islet perifusion); assay type: cell-based; set-up: AUC for time 35-75 minutes (glucose response), single repetitions / AUC for time 75-140 minutes (forskolin response), single repetitions: unit not given here; conditions: for insulin release: mean +/- SEM
# Procedure: This ex vivo example investigates the ability of pancreatic islets from diabetic db/db mice to restore, in response to treatment with FGF21 and GLP-1 compounds, the ability to release insulin in response to glucose stimulation.
# Islets from 25 db/db mice (Charles River), 15 weeks of age, were isolated according to the following procedure:
# Animals were killed by cervical dislocation and fixated with pins on a Styrofoam plate. Pancreata were removed and transferred to a Packard vial containing 5 ml collagenase (Life Science, grade II, cat. no. 100502) 300 units/ml (one pancreas/vial) which was kept on ice until all pancreata were removed. Then the pancreata were shaken in the Grant/Edmund S25 thermoshaker at 200 strokes/min. at 37° C. for 5 min. The tissue was transferred to a fresh vial containing 5 ml 150 units/ml collagenase (supernatant was discarded) and shaken again in the thermoshaker for 5 min. The tissue was further shaken 3-5 min. on the thermoshaker, and thereafter all shaking is done by hand for 5-10 sec. each time. These steps were repeated until all tissue was digested. The process was followed continuously under the stereomicroscope and once digested the tissue was pooled and collected in progressively fewer tubes. All supernatants were washed 3 times in HBSS+0.5% NCS (HBSS (10×) from Gibco, cat. no. 14060, is diluted 10× in H2O before use, Newborn Calf Serum (NCS) from Gibco, cat. no. 26010-066), allowed to sediment for 5 min. between each wash, and left on ice, following which the islets were ready for picking. Islets were purified by transferring a little bit of supernatant to a Petri dish, filling up with HBSS+NCS and subsequently transferring (by mouth pipetting) with a constriction pipette to a new Petri dish. From there the islet were re-picked until pure, and then incubated in RPMI 1640 medium (Gibco, cat no 61870-010)+10% NCS at 37° C.
# After incubation, the islets were washed in Krebs Ringer solution (115 mM NaCl, 4.7 mM KCl, 2.6 mM CaCl2, 1.2 mM KH2PO4, 1.2 mM MgSO4, 10 mM HEPES, 0.2% BSA, 2 mM glutamine, 5 mM NaHCO3, pH 7.4) and subsequently used in an islet perifusion experiment (Suprafusion 2500 from Brandel). For each of the three preincubation conditions four perifusion columns each with 60 islets were used. The islets were placed in Bio-gel P2 (Bio-Rad. cat. no. 150-4114) in the columns with a nylon mesh below and above the gel. The islets were initially perifused for 40 minutes with Krebs Ringer solution containing 3 mM glucose to obtain a stable baseline of insulin release. After 40 minutes the buffer was exchanged to 15 mM glucose for 30 minutes (time 40-70 min). Then the buffer was exchanged to 15 mM glucose containing 10 μM forskolin (Tocris 1099, batch 3A/86008) for 40 minutes (time 70-110 min). Finally the buffer was exchanged to low glucose (3 mM) for 30 minutes (time 110-140 min). The buffer was set to flow through the perifusion system at a rate of 0.3 ml/minute. Samples were taken every 5 minutes from time 30 to 140 min. Samples were stored at −20° C. and subsequently analysed for insulin, essentially as described by Poulsen et al. in Journal of Biomolecular Screening 12(X); p. 1-8, 2007 (LOCI (Luminescent Oxygen Channeling Immunoassay) sandwich immunoassay).
# The results (ng/ml insulin) are shown in Table 1 below as mean+/−standard error of mean (SEM). The figures for the control and the FGF21 compound are based on three repetitions (due to problems with one of the four columns in these two experiments), while the figures for the GLP-1 compound are based on four repetitions.
# The corresponding Area Under the Curve (designated AUC) figures were also calculated, and for the statistics the Student's T-test was used.
# db/db mice = experiment: Effect on blood glucose in vivo, acute study in db/db mice; conditions: compound F1 0.125 mg/kg s.c. 1 × daily for 3 days and/or compound G4 1 nmol/kg s.c. one hour after last FGF21 dose, 0-48 hours post GLP-1 dose
# Procedure: This acute in vivo study investigates the effect of FGF21 and GLP-1 compounds on blood glucose levels of db/db mice.
# The db/db mouse is a hyperglycaemic, hyperinsulinaemic, hyperphagic and obese model of type 2 diabetes.
# 23 db/db mice (Male, C57BLKS db/db, from Taconic, Denmark, 15-16 weeks of age).
# Dosed subcutaneously 1 × daily with 0.125 mg/kg human FGF21 (n=11) (compound F1) or vehicle (n=12) for 3 days. Vehicle was sterile PBS-buffer (DPBS, Gibco, cat. no. 14190).
# Both groups of animals were then dosed with either vehicle or GLP-1 compound G4 at 1 nmol/kg (n=5-6). The G4 compound is a GLP-1 analogue which has an extended half-life due to its derivatisation with an albumin binder. The GLP-1 or vehicle dose was given subcutaneously one hour after the last FGF21 or vehicle dose.
# Blood samples of 10 μl were taken from the tip of the tail for the measurement of blood glucose from 0-48 hours post dose of the GLP-1 compound.
# Results were analysed using the area under the glucose curve (AUC) for the vehicle group, the GLP-1 group, the FGF21 group and the combined group.
# The expected AUC was calculated using the following formula: […]
# AUCvehicle−((AUCvehicle−AUCFGF212)+(AUCvehicle−AUCGLP-1))
# [2] = insulin AUC per perifusion column, FGF21 = 50 nM Compound F1, GLP-1 = 100 nM Compound G3
molecule,measurement,setting,value
B1,restoration of glucose stimulated insulin release ex vivo,"[1]; db/db mice pancreatic islets, Table 2 results, F1 50 nM, G3 100 nM",capable of restoring glucose stimulated insulin release
same,"AUC for time 35-75 minutes (glucose response), single repetitions",[1]; [2],521.2 and 514.5 and 359.9
same,"AUC for time 75-140 minutes (forskolin response), single repetitions",[1]; [2],5402 and 4177 and 5832
same,"AUC for time 75-140 minutes (forskolin response), mean","[1]; insulin AUC, FGF21 = 50 nM Compound F1, GLP-1 = 100 nM Compound G3, * FGF21 vs GLP-1",(mean 5137*)
same,"AUC for time 35-75 minutes (glucose response), mean","[1]; insulin AUC, FGF21 = 50 nM Compound F1, GLP-1 = 100 nM Compound G3, ** vs control",(mean 465.2**)
same,insulin release,"[1]; time 35 min, 3 mM glucose, islets preincubated 48 h with 50 nM Compound F1 or 100 nM Compound G3",0.92 ± 0.10 ng/mL
same,insulin release,"[1]; time 40 min, 3 mM glucose, preincubation 48 h 50 nM F1 or 100 nM G3",0.71 ± 0.06 ng/mL
same,insulin release,"[1]; time 45 min, 15 mM glucose, preincubation 48 h 50 nM F1 or 100 nM G3",0.68 ± 0.04 ng/mL
same,insulin release,"[1]; time 50 min, 15 mM glucose, preincubation 48 h 50 nM F1 or 100 nM G3",19.56 ± 6.74 ng/mL
same,insulin release,"[1]; time 55 min, 15 mM glucose, preincubation 48 h 50 nM F1 or 100 nM G3",28.33 ± 2.09 ng/mL
same,insulin release,"[1]; time 60 min, 15 mM glucose, preincubation 48 h 50 nM F1 or 100 nM G3",12.07 ± 0.50 ng/mL
same,insulin release,"[1]; time 65 min, 15 mM glucose, preincubation 48 h 50 nM F1 or 100 nM G3",11.13 ± 0.66 ng/mL
same,insulin release,"[1]; time 70 min, 15 mM glucose, preincubation 48 h 50 nM F1 or 100 nM G3",13.37 ± 0.63 ng/mL
same,insulin release,"[1]; time 75 min, 15 mM glucose + 10 μM forskolin, preincubation 48 h 50 nM F1 or 100 nM G3",13.47 ± 0.78 ng/mL
same,insulin release,"[1]; time 80 min, 15 mM glucose + 10 μM forskolin, preincubation 48 h 50 nM F1 or 100 nM G3",77.17 ± 14.84 ng/mL
same,insulin release,"[1]; time 85 min, 15 mM glucose + 10 μM forskolin, preincubation 48 h 50 nM F1 or 100 nM G3",160.00 ± 16.52 ng/mL
same,insulin release,"[1]; time 90 min, 15 mM glucose + 10 μM forskolin, preincubation 48 h 50 nM F1 or 100 nM G3",154.00 ± 15.00 ng/mL
same,insulin release,"[1]; time 95 min, 15 mM glucose + 10 μM forskolin, preincubation 48 h 50 nM F1 or 100 nM G3",148.33 ± 17.95 ng/mL
same,insulin release,"[1]; time 100 min, 15 mM glucose + 10 μM forskolin, preincubation 48 h 50 nM F1 or 100 nM G3",125.00 ± 17.35 ng/mL
same,insulin release,"[1]; time 105 min, 15 mM glucose + 10 μM forskolin, preincubation 48 h 50 nM F1 or 100 nM G3",99.40 ± 11.84 ng/mL
same,insulin release,"[1]; time 110 min, 15 mM glucose + 10 μM forskolin, preincubation 48 h 50 nM F1 or 100 nM G3",79.97 ± 8.43 ng/mL
same,insulin release,"[1]; time 115 min, low glucose (3 mM), preincubation 48 h 50 nM F1 or 100 nM G3",69.63 ± 9.61 ng/mL
same,insulin release,"[1]; time 120 min, low glucose (3 mM), preincubation 48 h 50 nM F1 or 100 nM G3",56.23 ± 8.37 ng/mL
same,insulin release,"[1]; time 125 min, low glucose (3 mM), preincubation 48 h 50 nM F1 or 100 nM G3",30.03 ± 6.67 ng/mL
same,insulin release,"[1]; time 130 min, low glucose (3 mM), preincubation 48 h 50 nM F1 or 100 nM G3",13.16 ± 3.21 ng/mL
same,insulin release,"[1]; time 135 min, low glucose (3 mM), preincubation 48 h 50 nM F1 or 100 nM G3",5.76 ± 0.70 ng/mL
same,insulin release,"[1]; time 140 min, low glucose (3 mM), preincubation 48 h 50 nM F1 or 100 nM G3",3.92 ± 0.37 ng/mL
same,"Glucose lowering capacity (AUC), blood glucose AUC0-48 h, mean",db/db mice,389.8 mM·min
